Data published in patent US20230220005A1, “S100A8-INHIBITING PEPTIDE AND DISEASE THERAPEUTIC AGENT CONTAINING SAME” (TOKYO WOMEN'S MEDICAL UNIVERSITY, priority 2020, published 2023).
Values belong to the substance of their own block, whether it stands above or below them. Ends that are not written are not given here.

How the values were obtained:
[1] = biological target: T1, TLR4/MD-2 (Homo sapiens, UniProt O00206+Q9Y6Y9); assay: ELISA: binding of TLR4/MD-2 to peptides immobilized on plate; conditions: for binding to TLR4/MD-2 of alanine-substituted peptides: alanine scanning, amino terminus acetylated, carboxyl terminus amidated, immobilized on ELISA plate, FIG. 3
Description: Furthermore, for the purpose of narrowing the binding region with the TLR4/MD-2 complex, a peptide of 10 amino acids in the carboxyl terminal amino acid sequence was synthesized. At this time, the sequence can be comprehensively analyzed by overlapping by five amino acids. The synthesized peptides were immobilized on an ELISA plate (Thermo Fisher Scientific Inc.; Maxisorp), and then non-specific binding was blocked with a blocking buffer. Each well was washed with PBS-Tween 20 and then incubated with a high-purity human TLR4/MD-2 recombinant protein, then each well was incubated with an anti-TLR4 antibody (Abcam) and an anti-rabbit IgG-HRP labeled antibody (GE Healthcare), and finally a reaction with TMB as an HRP substrate was terminated with an equivalent of 1 N sulfuric acid. The amount of bound TLR4/MD-2 was quantified by measuring the absorbance at OD 450 nm.
In addition, acetylation was introduced at the amino terminus of these peptides, and amidation modification was introduced at the carboxyl terminus. These 10 peptides were immobilized on an ELISA plate (Thermo Fisher Scientific Inc.; Maxisorp) to verify binding with TLR4/MD-2.

[2] = biological target: T2, binding of S100A8 to TLR4/MD-2 complex (Homo sapiens, UniProt O00206+Q9Y6Y9); assay: Competition ELISA: binding of S100A8 to TLR4/MD-2 complex; conditions: for competitive inhibitory activity on binding of S100A8 to TLR4/MD-2 complex, candidate peptides: chain length screening candidates, FIG. 7(B); for competitive activity in competition assay, divalent and tetravalent peptides: FIG. 8
Description: Pre-purified S100A8 protein was immobilized on an ELISA plate. Non-specific binding was blocked with blocking buffer in the same manner as in Example 1. Peptides #1 to #6 were added simultaneously with TLR4/MD-2, and the mixture was reacted. Each well was washed with PBS-Tween 20, then incubated with an anti-TLR4 antibody (Abcam) and an anti-rabbit IgG-HRP labeled antibody (GE Healthcare) subsequently, and finally a reaction with TMB as an HRP substrate was terminated with an equivalent of 1 N sulfuric acid. Bound TLR4/MD-2 was quantified by measuring the absorbance at OD 450 nm.
(§1) In order to identify an essential region in the Peptide3A5 sequence, a series of partial sequence peptides based on the amino acid sequence of Peptide3A5, which were obtained by deleting the amino acid from the amino terminal side or the carboxyl terminal side, were spot-synthesized as divalent peptides on a cellulose membrane sheet using the method of Patent Literature 1. Several kinds of affinity peptides with high affinity to TLR4/MD-2 were obtained by reacting the sheet with TLR4/MD-2 (FIG. 7A). Candidate peptides were subjected to a competition assay similar to Example 1 (FIG. 2).
A competition assay was performed using divalent ILVIK (SEQ ID NO. 2), divalent Peptide3A5 (SEQ ID NO. 1), and tetravalent ILVIK. The tetravalent ILVIK was also synthesized using the method of Patent Literature 1.

[3] = biological target: T1, TLR4/MD-2; assay: Chain length screening: divalent peptides spot-synthesized on cellulose membrane sheet reacted with TLR4/MD-2; assay type: binding; conditions: FIG. 7(A)
Excerpt: as §1

[4] = biological target: T2, binding of S100A8 to TLR4/MD-2 complex; assay: Competition by immunoprecipitation with anti-TLR4 antibody and Western blotting; conditions: 10 times the molar amount of peptide; S100A8 detected by Western blotting; FIG. 2B
Description: The TLR4/MD-2 complex and S100A8 were mixed in a tube. At this time, 10 times the molar amount of each of Peptides #1 to #6 was added, and immunoprecipitation was performed with an anti-TLR4 antibody. The immunoprecipitate was washed several times with a washing buffer, and the final pellet was electrophoresed by SDS-PAGE. Then, S100A8 and TLR4 were detected by Western blotting using an anti-S100A8 antibody and an anti-TLR4 antibody.

[5] = test system: SW480 cells subcutaneous tumor; assay: Antitumor activity in SW480 xenograft model; assay type: in vivo; conditions: mouse, two weeks
Description: (§2) First, two weeks after transplantation of SW480 cells subcutaneously in a mouse, the size of the subcutaneous tumor was measured, and confirmed to be equivalent tumor size. The peptide was administered to the abdominal cavity at the indicated concentrations twice a week, and the size of the tumor was measured over time. After two weeks, the size of the subcutaneous tumor was measured, and the subcutaneous tumor was collected.
The divalent ILVIK was identified as an S100A8-inhibiting peptide candidate by chain length screening, and influence of the divalent ILVIK on mouse subcutaneous tumors was examined in the same manner as in Example 5 (FIG. 6). First, two weeks after transplantation of SW480 cells subcutaneously in a mouse, the size of the subcutaneous tumor is measured, and confirmed to be equivalent tumor size. The peptide was administered to the abdominal cavity at the indicated concentrations twice a week, and the size of the tumor was measured over time. After two weeks, the size of the subcutaneous tumor was measured, and the subcutaneous tumor was collected.
as §2, with “tetravalent ILVIK” for “peptide”, “concentrations (1 mg/kg, 5 mg/kg, 10 mg/kg)” for “concentrations”

[6] = test system: IL-8 mRNA expression in human colorectal cancer SW480 cells; assay: IL-8 mRNA induction by S100A8 in SW480 cells; assay type: cell-based; conditions: SW480 cells pretreated with peptide, stimulated with S100A8 recombinant protein, after 5 hours; FIG. 4
Description: Human colorectal cancer SW480 cells express TLR4, and induce IL-8 by S100A8 stimulation. In order to verify inhibitory activity of peptides isolated so far, after pretreating divalent Peptide #3 or divalent Peptide3A5, the cells were stimulated with S100A8 recombinant protein, and the mRNA expression of IL-8 after 5 hours was analyzed. The divalent Peptide #3 and the divalent Peptide3A5 were prepared according to the method of Patent Literature 1 described above.

[7] = peptide to the abdominal cavity twice a week, FIG. 6, FIG. 9

T2 sequence (O00206 24-631 limits assumed): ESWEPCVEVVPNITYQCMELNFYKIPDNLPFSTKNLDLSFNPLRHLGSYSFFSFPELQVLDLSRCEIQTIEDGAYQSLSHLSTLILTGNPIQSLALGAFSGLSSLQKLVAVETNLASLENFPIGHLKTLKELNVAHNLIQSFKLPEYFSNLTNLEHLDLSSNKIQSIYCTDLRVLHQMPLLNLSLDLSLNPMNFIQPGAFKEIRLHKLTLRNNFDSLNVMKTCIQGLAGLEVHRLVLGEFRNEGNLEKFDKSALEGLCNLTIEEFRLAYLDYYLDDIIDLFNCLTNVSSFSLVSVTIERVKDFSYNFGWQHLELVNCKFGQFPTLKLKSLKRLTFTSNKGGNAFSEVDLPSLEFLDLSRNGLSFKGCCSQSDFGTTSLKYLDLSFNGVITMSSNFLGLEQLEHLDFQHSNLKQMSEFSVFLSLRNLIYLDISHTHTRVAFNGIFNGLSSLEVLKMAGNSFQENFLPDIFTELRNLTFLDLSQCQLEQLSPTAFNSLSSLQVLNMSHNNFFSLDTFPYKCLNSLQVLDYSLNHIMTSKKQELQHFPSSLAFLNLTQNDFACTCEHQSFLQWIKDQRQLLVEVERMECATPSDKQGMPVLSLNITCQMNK
T2 sequence (Q9Y6Y9 19-160): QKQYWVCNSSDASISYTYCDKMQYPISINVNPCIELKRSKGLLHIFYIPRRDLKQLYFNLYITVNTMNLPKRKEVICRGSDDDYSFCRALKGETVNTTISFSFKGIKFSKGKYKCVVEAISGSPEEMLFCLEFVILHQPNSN
T1 sequence (O00206 24-631 limits assumed): as the sequence (O00206 24-631 limits assumed) above
T1 sequence (Q9Y6Y9 19-160): as the sequence (Q9Y6Y9 19-160) above

competitive inhibitory activity on binding of S100A8 to TLR4/MD-2 complex, candidate peptides [2]: competitive inhibitory activity
affinity for TLR4/MD-2 of partial sequence peptides [3]: high affinity
Substance: Gln-Glu-Phe-Ala-Ile-Leu-Val (QEFAILV) [SEQ ID NO: 4]

competitive inhibitory activity on binding of S100A8 to TLR4/MD-2 complex, candidate peptides [2]: competitive inhibitory activity
affinity for TLR4/MD-2 of partial sequence peptides [3]: high affinity
Substance: Ile-Leu-Val-Ile-Lys (ILVIK) [SEQ ID NO: 2]

binding to TLR4/MD-2 of alanine-substituted peptides [1]: reduced
Substance: Peptide3A6: Peptide #3 (SEQ ID NO: 13) with position 6 from the N-terminal side substituted with alanine; acetylated amino terminus, amidated carboxyl terminus (Ac-FQEFLALVIK-NH2)

binding to TLR4/MD-2 of alanine-substituted peptides [1]: reduced
Substance: Peptide3A7: Peptide #3 (SEQ ID NO: 13) with position 7 from the N-terminal side substituted with alanine; acetylated amino terminus, amidated carboxyl terminus (Ac-FQEFLIAVIK-NH2)

binding to TLR4/MD-2 of alanine-substituted peptides [1]: reduced
Substance: Peptide3A8: Peptide #3 (SEQ ID NO: 13) with position 8 from the N-terminal side substituted with alanine; acetylated amino terminus, amidated carboxyl terminus (Ac-FQEFLILAIK-NH2)

binding to TLR4/MD-2 of alanine-substituted peptides [1]: reduced
Substance: Peptide3A10: Peptide #3 (SEQ ID NO: 13) with position 10 from the N-terminal side substituted with alanine; acetylated amino terminus, amidated carboxyl terminus (Ac-FQEFLILVIA-NH2)

Continued, substance first:

Substance: FQEFAILVIK [Peptide3A5]
binding to TLR4/MD-2 of alanine-substituted peptides [1]: higher affinity for TLR4/MD-2 than Peptide #3

Substance: Phe-Gln-Glu-Phe-Ala-Ile-Leu-Val-Ile (FQEFAILVI) [SEQ ID NO: 3]
competitive inhibitory activity on binding of S100A8 to TLR4/MD-2 complex, candidate peptides [2]: competitive inhibitory activity
affinity for TLR4/MD-2 of partial sequence peptides [3]: high affinity

Substance: Phe-Gln-Glu-Phe-Leu-Ile-Leu-Val-Ile-Lys (FQEFLILVIK) [Peptide #3]
competitive inhibitory activity on the binding of S100A8 to the TLR4/MD-2 complex (immunoprecipitation) [4]: had competitive inhibitory activity
competitive inhibitory activity on the binding between S100A8 and the TLR4/MD-2 complex (ELISA) ([2]; S100A8 immobilized, peptide added simultaneously with TLR4/MD-2, FIG. 2A): found to have competitive inhibitory activity
affinity for TLR4/MD-2 (amount of bound TLR4/MD-2, absorbance at OD 450 nm) ([1]; overlapping 10 amino acid peptides immobilized on ELISA plate, FIG. 1): high affinity for TLR4/MD-2

Substance: divalent ILVIK: divalent peptide containing two ILVIK (SEQ ID NO. 2) sequences (also: divalent linkage of two copies (linker not given here))
development of subcutaneous tumor (tumor size) [5, 7]: suppressed the development of mouse subcutaneous tumor in a concentration-dependent manner
competitive activity in competition assay, divalent and tetravalent peptides [2]: almost similar competitive activity as the divalent Peptide3A5

Substance: divalent Peptide3A5: divalent peptide containing two Peptide3A5 (SEQ ID NO. 1) sequences, prepared according to the method of Patent Literature 1 (chain 1 FQEFAILVIK; chain 2 FQEFAILVIK; also: divalent linkage of two copies (linker not given here))
development of subcutaneous tumor (tumor size) [5, 7]: suppressed the development of subcutaneous tumor in mice in a concentration-dependent manner
competitive inhibitory activity, monovalent versus divalent ([2]; various concentrations added simultaneously with TLR4/MD-2 complex, FIG. 5): showed the competitive inhibitory activity at a lower concentration as compared with the monovalent type
expression of mRNA of IL-8 induced by S100A8 [6]: remarkably inhibited

Substance: divalent Peptide #3: divalent peptide containing two Peptide #3 sequences, prepared according to the method of Patent Literature 1 (FQEFLILVIK)
expression of mRNA of IL-8 induced by S100A8 [6]: remarkably inhibited

Substance: tetravalent ILVIK: tetravalent peptide containing four ILVIK sequences, synthesized using the method of Patent Literature 1
development of subcutaneous tumor (tumor size) ([5]; 1 mg/kg, 5 mg/kg, 10 mg/kg to the abdominal cavity twice a week, FIG. 10): suppressed the development of mouse subcutaneous tumors in a concentration-dependent manner
competitive activity in competition assay, divalent and tetravalent peptides [2]: almost the same competitive activity as the divalent ILVIK
